{"source": "paper PMC4390396", "proteins": {"B1": {"name": "E. coli UbiA (EcUbiA) (Escherichia coli K-12; R60A) (protein)", "chain": "MEWSLTQNKLLAFHRLMRTDKPIGALLLLWPTLWALWVATPGVPQLWILAVFVAGVWLMAAAGCVVNDYADRKFDGHVKRTANRPLPSGAVTEKEARALFVVLVLISFLLVLTLNTMTILLSIAALALAWVYPFMKRYTHLPQVVLGAAFGWSIPMAFAAVSESVPLSCWLMFLANILWAVAYDTQYAMVDRDDDVKIGIKSTAILFGQYDKLIIGILQIGVLALMAIIGELNGLGWGYYWSILVAGALFVYQQKLIANREREACFKAFMNNNYVGLVLFLGLAMSYWHF"}}, "substrate": "O=C(O)c1ccc(O)cc1", "assay": "cells, lysate or membranes"}
{"protein": "B1", "values": [{"measurement": "Km", "result": 3000, "unit": "µM"}]}
